# Oligonucleotides are written 5' to 3', each unit as a sugar letter and its base; * is a phosphorothioate linkage, no mark a phosphodiester; rarer units and linkages stand in square brackets, end groups in braces. Plain capitals give the bases only. d = 2'-deoxy (DNA); {P} = phosphate
# B1: PS70: phosphorothioate 70-mer ssDNA, BFP point mutation, SEQ ID 51 (nucleic acid)
# DNA: {P}-dC*dC*dCdGdTdGdCdCdCdTdGdGdCdCdCdAdCdCdCdTdCdGdTdGdAdCdCdAdCdCdCdTdGdAdCdCdTdAdCdGdGdCdGdTdGdCdAdGdTdGdCdTdTdCdAdGdCdCdGdCdTdAdCdCdCdCdGdA*dC*dC
# B2: PS100: phosphorothioate 100-mer ssDNA, BFP point mutation, SEQ ID 45 (nucleic acid)
# DNA: {P}-dA*dC*dCdGdGdCdAdAdGdCdTdGdCdCdCdGdTdGdCdCdCdTdGdGdCdCdCdAdCdCdCdTdCdTdGdAdCdCdAdCdCdCdTdGdAdCdCdTdAdCdGdGdCdGdTdGdCdAdGdTdGdCdTdTdCdAdGdCdCdGdCdTdAdCdCdCdCdGdAdCdCdAdCdAdTdGdAdAdGdCdAdGdCdAdCdGdA*dC*dT
# B3: 32-3′: short dsDNA donor with 32-base 3′ overhangs, EmGFP, SEQ ID 100 and 101 (nucleic acid)
# chain 1: AGAATTCTTGTCGTCATCGTCTTTGTAGTCAGGTGGTCACGAGGGTGGGCCAGGGCACGGGC
# chain 2: GACTACAAAGACGATGACGACAAGAATTCTACGGCGTGCAGTGCTTCGCCCGCTACCCCGAC
# modifications: DNA, backbone and methylation of C not given here; further chemistry not fully specified
# B4: 45-3′: dsDNA donor with 45-base 3′ overhangs, annealed SEQ ID 95 and 96 (nucleic acid)
# chain 1: GACTACAAAGACGATGACGACAAGAATTCTTACGGCGTGCAGTGCTTCAGCCGCTACCCCGACCACATGAAGCAGCAC
# chain 2: AAGAATTCTTGTCGTCATCGTCTTTGTAGTCGGTCAGGGTGGTCACGAGGGTGGGCCAGGGCACGGGCAGCTTGCCGG
# modifications: chemistry not fully specified
# B5: PS90: phosphorothioate 90-mer ssDNA, BFP point mutation, SEQ ID 47 (nucleic acid)
# DNA: GCAAGCTGCCCGTGCCCTGGCCCACCCTCGTGACCACCCTGACCTACGGCGTGCAGTGCTTCAGCCGCTACCCCGACCACATGAAGCAGC
# modifications: 5' phosphate, modified ends, chemistry not fully specified
# B6: 90: unmodified 90-mer ssDNA, BFP point mutation, SEQ ID 46 (nucleic acid)
# DNA: GCAAGCTGCCCGTGCCCTGGCCCACCCTCGTGACCACCCTGACCTACGGCGTGCAGTGCTTCAGCCGCTACCCCGACCACATGAAGCAGC
# modifications: unmodified DNA
# B7: 80: unmodified 80-mer ssDNA, BFP point mutation, SEQ ID 48 (nucleic acid)
# DNA: GCTGCCCGTGCCCTGGCCCACCCTCGTGACCACCCTGACCTACGGCGTGCAGTGCTTCAGCCGCTACCCCGACCACATGA
# modifications: DNA, backbone not given here
# B8: 70: unmodified 70-mer ssDNA, BFP point mutation, SEQ ID 50 (nucleic acid)
# DNA: CCCGTGCCCTGGCCCACCCTCGTGACCACCCTGACCTACGGCGTGCAGTGCTTCAGCCGCTACCCCGACC
# modifications: DNA, backbone not given here
# B9: 32-5′: short dsDNA donor with 32-base 5′ overhangs, EmGFP, SEQ ID 98 and 99 (nucleic acid)
# chain 1: GCCCGTGCCCTGGCCCACCCTCGTGACCACCTGACTACAAAGACGATGACGACAAGAATTCTA
# chain 2: GTCGGGGTAGCGGGCGAAGCACTGCACGCCGTAGAATTCTTGTCGTCATCGTCTTTGTAGTC
# modifications: DNA, backbone and methylation of C not given here; further chemistry not fully specified
# Key:
# Type in all cases: cell-based
# [1] = tested on: HEK293 cells stably expressing eBFP; assay: HDR assay, conversion of eBFP to GFP by flow cytometry; conditions: oligonucleotide length and modification, sequential delivery, 1 nt substitution, 48 hours
# Excerpt: To generate a HEK293FT stable cell line expressing eBFP, an eBFP ORF was synthesized by GENEART® custom DNA synthesis (Thermo Fisher Scientific) and then cloned into pDONAR221 vector. Using GATEWAY® recombination technology (Thermo Fisher Scientific), the eBFP ORF was transferred to pLenti6.2-DEST Gateway Vector and then verified by sequencing. Lentivirus was generated using VIRAPOWER® kit as described in the manual. To generate stable cell line, HEK293FT cells were transduced with 0.1 MOI of Lentivirus expressing eBFP. Three days post transduction cells were selected on 5 μg/mL Blasticidine antibiotics for 2 weeks. Cells expressing eBFP were then collected and diluted to […] in complete medium and plated into 96 well plates for single cell clone. After 2 weeks clones were isolated and verified for eBFP expression by flow cytometer. In a reporter assay using a stable eBFP-expressing HEK293 cell line, the substitution of C to T in eBFP gene converts His67 to Tyr67, generating a GFP variant (Table 5).
# (§1) To create homologous recombination (HR) assays, a series of gRNAs flanking the insertion site within the EmGFP gene were designed and synthesized (Table 4). Each individual gRNA was combined with GENEART™ […]™ Cas9 Nuclease to form the Cas9 protein/gRNA ribonucleoprotein complexes (Cas9 RNPs). The Cas9 RNPs were then used to transfect cells via NEON® electroporation. The genomic cleavage efficiency was then evaluated using the GENEART® Genomic Cleavage Detection kit at 48 hours post transfection. The gRNAs with highest editing efficiencies and also in close proximity to the insertion site were selected for the subsequent HR assays. For donor design of a single-stranded oligonucleotide, typically the mutation site was positioned at the center flanked by 30 to 50 nucleotides on each side. For asymmetric donor design, 30 nucleotides were placed on either the left or right arm and then 50 or 67 nucleotides on the right or left arm respectively, in both PAM and non-PAM strands. For design of a dsDNA oligonucleotide with single-stranded overhangs, the insertion element was overlapped in the center flanked by various lengths of ssDNA oligonucleotide on each side. By annealing two single-stranded oligonucleotides at 95° C. for 3 minutes, dsDNA donor molecules with either a 5′ protrusion or a 3′ protrusion were generated. To measure homologous recombination efficiency, the donor DNA was either co-transfected with Cas9 RNPs or delivered sequentially into cells via electroporation. At 48 hours post transfection, the gain of EmGFP function in reporter cell lines was determined by flow cytometric analysis with an Attune® NxT Acoustic Focusing Cytometer (Thermo Fisher Scientific). Alternatively, the genomic loci were PCR-amplified using the corresponding primers and then subjected to GENEART® Genomic Cleavage Detection assay or restriction digestion. The resulting PCR products were also subjected to TOPO cloning. Typically, 96 colonies were randomly picked for sequencing. The sequencing data were analyzed using VECTOR NTI ADVANCE® 11.5 software (Thermo Fisher Scientific).
# For each homologous recombination assay, 1.5 μg of Cas9 protein and 360 ng of gRNA were added to Resuspension Buffer R to a final volume of 7 μl, but limiting the total volume of Cas9 protein plus gRNA to less than 1 μl. The gRNA could be diluted in Buffer R if the concentration was too high. Upon mixing, the sample was incubated at room temperature for 5 to 10 minutes to form Cas9 RNPs. Meanwhile, […]™ HEK293 cells expressing either eBFP or disrupted EmGFP were detached from culture flask with TRYPLE™ Express Enzyme and then counted. Aliquots of 1×10^6 cells were washed once with DPBS without Ca^2+ and Mg^2+ and the cell pellets were resuspended in 50 μl of Resuspension Buffer R. A 5 μl aliquot of cell suspension was mixed with 7 μl of Cas9 RNPs. […] The electroporated cells were transferred to 300 μl of […]. […]
# [2] = tested on: EmGFP gene in GRIPTITE HEK293 cells; assay: Sequencing analysis of FLAG tag/EcoRI insertion with +5 gRNA; conditions: sequential delivery, 48 hours
# Protocol: In order to understand the polarity of dsDNA donor with single stranded overhangs, we inserted a FLAG epitope tag along with an EcoRI site into a separate locus where the +5 gRNA was targeting the bottom strand of EmGFP gene (see Table 21). The Cas9 RNPs were first delivered into […]™ HEK293 cells, followed by the delivery of ssDNA donor, or short dsDNA donors with 32-base single stranded overhangs at either 5′ or 3′ end. Samples in the absence of gRNA served as controls. At 48 hours post transfection, the genomic loci were amplified by PCR. The resulting PCR fragments were subjected to restriction digestion with EcoRI (data not shown) or subjected to sequencing analysis. The integration efficiency of FLAG epitope tag along with an EcoRI was approximately 34% using dsDNA donor with 3′ overhangs and 20% using ssDNA donor.
# [3] = tested on: eBFP locus in HEK293 cells expressing eBFP; assay: EcoRI restriction digestion of PCR-amplified eBFP locus (FLAG tag/EcoRI insertion); conditions: FIG. 11B, length of 3′ overhang, 48 hours
# Excerpt: FIG. 11. Insertion of a FLAG tag along with an EcoRI site using dsDNA donor with single-stranded overhangs. (A) Various donor DNA molecules containing a 30-base FLAG tag along with an EcoRI site were designed and synthesized, including single-stranded DNA donor (ssDNA), blunt-end dsDNA donor (blunt), dsDNA donor with 5′ overhang (5′), dsDNA donor with 3′ overhang (3′). The length of overhangs varied from 6 nucleotides (6), 15 nucleotides (15) to 30 nucleotides (30). The 3′ and 5′ ends of the oligonucleotides harbored two consecutive phosphorothioate-modified bases (Table 4). The short dsDNA donors with and without overhangs were prepared by annealing two short DNA oligonucleotides. […] At 48 hours post transfection, the eBFP locus was PCR-amplified. The resulting PCR fragments were analyzed by the genomic cleavage and detection assays to determine the percentage of Indel or subjected to restriction digestion with EcoRI to determine the percentage of digestion. (B) Length of 3′ overhang. […] Alternatively, a dsDNA donor with 30-base 3′ overhang but without phosphorothioate modification (30-3′n) was used. The percentage of digestion with EcoRI was determined at 48 hours post transfection. (C) Dose effect. […] The eBFP loci were PCR-amplified. The resulting PCR fragments were analyzed by EcoRI digest. (D) Sequencing verification. The PCR fragments were cloned into E. coli and 192 clones were randomly picked for sequencing. The relative percentage of wild type (wt), NHEJ, and HDR clones derived from either ssDNA donor (ssDNA) or dsDNA with 3′ overhangs (3′ overhang) was plotted. The white rectangles represented the population of clones that contained the insert but with a point mutation. Examples of edited clones were shown in (E) (not representing the actual percentages of NHEJ and HDR). The underlined sequences represented the FLAG tag along with an RI site. FIG. 11 discloses SEQ ID NOs: 15-24, respectively, from top to bottom.
# as §1, with “The sequencing data were analyzed using VECTOR NTI ADVANCE® 11.5 software (Thermo Fisher Scientific).” left out
molecule,measurement,setting,value
"50: unmodified 50-mer ssDNA, BFP point mutation, SEQ ID 54 (DNA CCCACCCTCGTGACCACCCTGACCTACGGCGTGCAGTGCTTCAGCCGCTA; DNA, backbone not given here) [compound 50]",Avg (% GFP+ cells),[1],14.4%
B1,Avg (% GFP+ cells),[1],39.2%
B2,Avg (% GFP+ cells),[1],38.4%
B3,Relative % HDR (integration of FLAG epitope tag along with EcoRI),[2],34.2%
same,Relative % NHEJ,[2],54.6%
same,Relative % wt,[2],11.1%
same,Relative % HDR (integration of FLAG epitope tag along with EcoRI),[2]; listed as dsDNA donor with 3′ overhangs,approximately 34%
B4,Avg (% digestion),[3],37.0%
B5,Avg (% GFP+ cells),[1],38.8%
B6,Avg (% GFP+ cells),[1],32.8%
B7,Avg (% GFP+ cells),[1],38.4%
B8,Avg (% GFP+ cells),[1],34.7%
B9,Relative % HDR (integration of FLAG epitope tag along with EcoRI),[2],0.0%
same,Relative % NHEJ,[2],78.0%
same,Relative % wt,[2],22.0%
same,Relative % HDR (integration of FLAG epitope tag along with EcoRI),[2]; listed as dsDNA donor with 5′ overhangs,barely detectable integration product

# Reference: patent publication US10428327B2, “Compositions and methods for enhancing homologous recombination” (LIFE TECHNOLOGIES CORPORATION, priority 2016, dated 2019)
